Source: the supplement of paper PMC7877785
± gives the uncertainty stated by the source.

Assay: self-splicing fitness, log relative to wild type (ln ratio); higher = more splicing; Tetrahymena group I intron in knt gene, E. coli kanamycin selection, DiMSum; sequences stand for … in CUCUCU…GGAGGGAAAAGUUAUCAGGCAUGCACCUGGUAGCUAGUCUUUAAACCAAUAGAUUGCAUCGGUUUAAAAGGCAAGACCGUCAAAUUGCGGGAAAGGGGUCAACAGCCGUUCAGUACCAAGUCUCAGGGGAAACUUUGAGAUGGCCUUGCAAAGGGUAUGGUAAUAAGCUGACGGACAUGGUCCUAACCACGCAGCCAAGUCCUAAGUCAACAGAUCUUCUGUUGAUAUGGAUGCAGUUCACAGACUAAAUGUCGGUCGGGGAAGAUGUAUUCUUCUCAUAAGAUAUAGUCGGACCUCUCCUUAAUGGGAGCUAGCGGAUGAAGUGAUGCAACACUGGAGCCGCUGGGAACUAAUUUGUAUGCGAAAGUAUAUUGAUUAGUUUUGGAGUACUCGUGGUCG
Method in brief: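 The eight P1ex-region nucleotides of an intron in the knt kanamycin-resistance gene on pET-22b(+) were all randomised and the library put into E. coli BL21(DE3). Six replicate transformations were grown overnight at 37°C or 30°C on LB agar with or without 25 μg/mL kanamycin, together with 100 μg/mL carbenicillin, 50 μM IPTG and 0.2% rhamnose. Colonies were pooled and amplicon-sequenced on an Illumina HiSeq 2500. Fitness from DiMSum is the error-weighted combination of wild-type-normalised replicate fold changes, kanamycin over none.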

| Sequence | self-splicing fitness (ln) (30 °C) | self-splicing fitness (ln) (37 °C) |
| --- | --- | --- |
| CACAAGCAAUAUUACGCGCA | -0.607 ± 0.095 | -1.28 ± 0.1 |
| CACAAGCAAUAUUACGCGGA | -3.17 ± 0.13 | -1.08 ± 0.084 |
| CACAAGCAAUAUUACGCGUC | -2.54 ± 0.13 | -2.15 ± 0.18 |
| CACAAGCAAUAUUACGCUAC | -3.18 ± 0.19 | -2.26 ± 0.18 |
| CACAAGCAAUAUUACGGAGU | -3.2 ± 0.13 | -2.64 ± 0.15 |
| CACAAGCAAUAUUACGGCGU | -1.66 ± 0.088 | -1.57 ± 0.099 |
| CACAAGCAAUAUUACGGGAU | -3.51 ± 0.14 | -1.41 ± 0.097 |
| CACAAGCAAUAUUACGGGCC | -3.78 ± 0.33 | -2.01 ± 0.29 |
| CACAAGCAAUAUUACGGGUC | -3.43 ± 0.1 | -2.2 ± 0.12 |
| CACAAGCAAUAUUACGGUUC | -4.1 ± 0.22 | -2.66 ± 0.19 |
| CACAAGCAAUAUUACGUCAA | -3.14 ± 0.17 | -2.6 ± 0.2 |
| CACAAGCAAUAUUACGUCGC | -3.09 ± 0.11 | -2.41 ± 0.17 |
| CACAAGCAAUAUUACGUCGU | -3.56 ± 0.13 | -1.96 ± 0.11 |
| CACAAGCAAUAUUACGUCUC | -3.1 ± 0.25 | -2.5 ± 0.22 |
| CACAAGCAAUAUUACGUGAU | -4.03 ± 0.15 | -2.5 ± 0.15 |
| CACAAGCAAUAUUACGUUAG | -1.37 ± 0.052 | -0.63 ± 0.062 |
| CACAAGCAAUAUUACGUUGA | -3.84 ± 0.2 | -1.64 ± 0.1 |
| CACCAGCAAUAUUACGACAU | -3.726 ± 0.018 | -2.66 ± 0.035 |
| CACCAGCAAUAUUACGAGAA | -3.55 ± 0.43 | -2.33 ± 0.28 |
| CACCAGCAAUAUUACGAGGC | -2.98 ± 0.17 | -2.46 ± 0.19 |
| CACCAGCAAUAUUACGAUGA | -1.9 ± 0.091 | -2 ± 0.099 |

| Sequence | self-splicing fitness (ln) (30 °C) | self-splicing fitness (ln) (37 °C) |
| --- | --- | --- |
| CACCAGCAAUAUUACGAUUA | -2.82 ± 0.14 | -1.26 ± 0.11 |
| CACCAGCAAUAUUACGCAGC | -3.44 ± 0.16 | -1.77 ± 0.12 |
| CACCAGCAAUAUUACGCCGU | -2.65 ± 0.13 | -2.55 ± 0.18 |
| CACCAGCAAUAUUACGCUAU | -4.03 ± 0.16 | -2.21 ± 0.13 |
| CACCAGCAAUAUUACGCUUC | -4.12 ± 0.34 | -1.45 ± 0.13 |
| CACCAGCAAUAUUACGGAAG | -0.975 ± 0.049 | -0.0423 ± 0.072 |
| CACCAGCAAUAUUACGGGAU | -3.34 ± 0.076 | -1.9 ± 0.076 |
| CACCAGCAAUAUUACGGGCC | -3.9 ± 0.19 | -1.73 ± 0.14 |
| CACCAGCAAUAUUACGGGGU | -4.29 ± 0.2 | -3.49 ± 0.29 |
| CACCAGCAAUAUUACGGUAC | -3.11 ± 0.11 | -2.13 ± 0.1 |
| CACCAGCAAUAUUACGGUGG | -2.71 ± 0.077 | -1.59 ± 0.084 |
| CACCAGCAAUAUUACGUGGU | -3.65 ± 0.1 | -3.16 ± 0.14 |
| CACCAGCAAUAUUACGUGUU | -4.11 ± 0.14 | -2.67 ± 0.1 |
| CACCAGCAAUAUUACGUUCC | -4.91 ± 0.41 | -2.45 ± 0.26 |
| CACGAGCAAUAUUACGAAUC | -3.87 ± 0.35 | -2.93 ± 0.25 |
| CACGAGCAAUAUUACGACAA | – | -2.44 ± 0.28 |
| CACGAGCAAUAUUACGACCG | -0.0895 ± 0.089 | 0.125 ± 0.12 |
| CACGAGCAAUAUUACGCACG | -2.13 ± 0.21 | -1.15 ± 0.21 |
| CACGAGCAAUAUUACGCAGG | -3.49 ± 0.21 | -2.55 ± 0.2 |
| CACGAGCAAUAUUACGCCGA | -2.35 ± 0.39 | – |
| CACGAGCAAUAUUACGCCUG | -3.26 ± 0.23 | -2.38 ± 0.17 |
